Experimental findings from the nanobody polyreactivity screen of Harvey et al. (2022) are described below.

This series can be described thus: yeast display, Sf9 membrane polyspecificity reagent, FACS + sequencing; frameworks hold sequencing errors. The gist of the method: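 A nanobody's polyreactivity label depends on the gate it was sorted from. Yeast display cells were stained with 10% biotinylated, detergent-solubilized Sf9 membrane reagent for 1 hour at 4 °C, enriched on streptavidin microbeads and sorted by FACS. The low and high (top ~1%) gates were set on anti-HA fluorescence for expression and streptavidin fluorescence for reagent binding.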
As for “QVQLVESAGGLVQAGGSLRLSCAASGRIFYRYAMAWYRQAPGKERELVAAITQSGGSTFYADSVKGRFTISRDNAKNTVYLQMNSLKPEDTAVYYCNAYIPSLRGDYWGQGTQVTVSS”, the “polyreactivity (PSR sort gate)” value is “high polyreactivity”.
The result for “QVQLVESAGGLVQAGGSLRLSCAASGSIFLSNAMGWYRQAPGTERALVADIDWTGGDTYYADSVKGRFTISRDNAKNTVYLQMNSLKPEDTAFYYCAADYGYRNLLTEYGYWGQGTQVTVSS” reads “low polyreactivity”; that for “QVQLVESAGGLVQAGGSLRLSCAASGSIFPTNTMGWYRQAPGKERELVATIRKSSGRTYYADSVKGRFTISRDNAKNTVYLQMNSLKPEDTAVYYCNARRYSGALRYDYWGQGTQVTVSS”, “high polyreactivity”; that for “QVQLVESAGGLVQAGGSLRLSCAASGSIFSPYAMGWYRQAPGKERELVAAITWNGGRTYYADSVKGRFTISRDNAKNTVYLHMNSLKPEDTAVYYCTAASQSRYYYWGQGTQVTVSS”, “high polyreactivity”.
The result for “QVQLVESAGGLVQAGGSLRLSCAASGSTFAYNVMGWYRQAPGKERELVASISSSSGSTYYADSVKGRFTISRDNAKNTVYLQMNSLKPEDTAVYYCATYPAYTEYDYWGQGTQVTVSS” reads “high polyreactivity”; that for “QVQLVESAGGLVQAGGSLRLSCAASGSTFPWNAMGWDRQAPGKERELVAAISKSGGRTYYADSVKGRFTISRDNAKNTVYLQMNSLKPVDTAVYYCAKRYALSVYYRLYDYWGQGTQVTVSS”, “high polyreactivity”.
Regarding “QVQLVESAGGLVQAGGSLRLSCAASGSTFTLYAMGWYRQAPGKERELVAAISWSGDSTYYADSVKGRFTISRDNAKNTVYLQMNSLKPEDTAVYYCAAENVYGYDYWGQGTQVTESS”, the “polyreactivity (PSR sort gate)” value is reported as “high polyreactivity”.
With “QVQLVESAGGLVQAGGSLRLSCAASGSTFVGYAMGWYRQAPGKERELVAAISGSGTSTYYADSVKGRFTISRDNAKNTVYLQMNSLKPEDTAVYYCNADPIFVYSSYNYWGQGTQVTVSS”, the “polyreactivity (PSR sort gate)” value was “low polyreactivity”.
On to “QVQLVESAGGLVQAGGSLRLSCAASGSTFYAYVMGWYRPAPGKARELVAAISKGGGSTYYADSVKGRFTISRDNAKNTVYLQMNSLKPEDTAVYYCAAYASYSNYRKYNYWGQGTQVTVSS”, for which the “polyreactivity (PSR sort gate)” value is “high polyreactivity”.
With “QVQLVESAGGLVQAGGSLRLSCAASGSTIYPNAMGWYRQAPGKERELVAVISSGGSTYYADSVKGRFTISRDNAKNTVYLQMNSLKPEDTAVYYCADERYYFPRSYRYGYWGQGTQVTVSS”, the “polyreactivity (PSR sort gate)” value was “low polyreactivity”.
The result for “QVQLVESAGGLVQAGGSLRLSCAASGSTLYPYDMGWYRQAPGKERELVAAIDSGGSTNYADSVKGRFTISRDNAKNTVYLQMNSLKPEDTAVYYCAADASGENDYWGQGTQVTVSS” reads “low polyreactivity”; that for “QVQLVESAGGLVQAGGSLRLSCAASGTILWWNAMGRYRPAPGKERELVADITSDGTYADSVKGRFTISRDNAKNTVYLQMNSLKPEDTAVYYCAAVDAYGPGLNGYDYWGQGTQVTVSS”, “low polyreactivity”; that for “QVQLVESAGGLVQAGGSLRLSCAASRRTFARYAIGRYRQAPGQERELVAALSRSGTCTYYADSVLGRFTISRDNAKNTVYLQKNSLKPEDCAVYYCAVDAYLGHYDYWGQGTQVTVSS”, “high polyreactivity”.
Regarding “QVQLVESAGGLVQAGGSLRLSCAASVSTLEYNAMGWYRQAPGNERELVAAITASGGSTYYADSVKGRFTISRDNAKKTVYLQMNSLKPDDTAVYYCATEANQRTLKDTVKDYDYWGQGTQVTVSS”, the “polyreactivity (PSR sort gate)” value is “low polyreactivity”.
As for “QVQLVESAGGLVQAGGSLRLSCDASGYTFNYNTMGCYRQARGKERELVSAINTSGSTDYADSVKGRFTISRDNAKNTDYLLMNRLKPEDTAVYYCAVRVAYKYNYWGQGTQETVSS”, the “polyreactivity (PSR sort gate)” value is recorded as “high polyreactivity”.
As for “QVQLVESAGGLVQAGGSLRLTCAASGNIFRRYAMGWYRQAPGKERELVAAISWRSGNTYYADSVKGRFTISRDNAKNTVYLQMNSLKPEDTAVYYCNKDYWWIPQLPHYNYWGQGTQVTVSS”, the entry is “low polyreactivity”.
The result for “QVQLVESAGGLVQAGGSLRVICAASASTSVHNAMGWYRQAPGKERELVAAITSDGSTNYADSVKGRFTISRDNEKNTVYLLMYSLEPEDTAFYYCAALGWTYYVGYVSYSYGYWGQGTQVTVSS” reads “low polyreactivity”.
As for “QVQLVESAGGLVQAGGSLSLSCAASGFNFKGYAMGSYRQAPGKERELVAAISSSGTSTYYADSVKGRFTISRDNEKNTVYLQMNSLKPEDTAVYYCARVSKRTWSGYYYWGQGTQVTVSS”, the entry is “high polyreactivity”; as for “QVQLVESAGGLVQAGGSLSLSCAASGITFIPNPMGWYRQAPGKERELVAAISISGGRTYYADSVKGRFTISRDNAKNTVYLQMNSLKPEDTAVYYCAADRADFFVIRTIDPYDYWGQGTQVTVSS”, “low polyreactivity”.
“QVQLVESAGGLVQAGGSLSLSCAASGLTFHYYHMGWYRQATGKETELVAAITSSGGRTYYADSVKGRFTISRDNEKNTVFLQMNSLKPEDTAVYFCAADIYPDWIYLLYGYWGQGTQVTVSS”: the “polyreactivity (PSR sort gate)” value is listed as “low polyreactivity”.
Turning to “QVQLVESAGGLVQAGGSLSLSCAASGRTFSYYAMGWYRHARGKERELVAAISRRGGSTYYADSVKGRLTISRDNAKNTVYLQMISLKPEDTAVDYCNARGRSTVGGGFYYWGLGTQVTVSS”, the “polyreactivity (PSR sort gate)” value is given as “high polyreactivity”.
The result for “QVQLVESAGGLVQAGGSLSLSCAASGSTFYKYTMGWDRQAPGKERELVAAISGSGTTTYYADSVKGRFTISRDNAKNTVYLQMNSLKPEDTAVYYCAAHSRSSSGYHWGQGTQVTVSS” reads “high polyreactivity”; that for “QVQLVESAGGLVQAVGSLRLSCDASGSTFSGNDMGWYRQAPGKERELVAAITSSGGSTYYADSVKGRFTISRDNAKNTVYLQMNSLKPEDTAVYYCAAKSRRTRRSYYWGQGTQVTVSS”, “high polyreactivity”.
On to “QVQLVESAGGLVQEGGSLRVSCAASGRTFGRYAMGRYRQAPGKEREMVAAITVGGGSTYYADSVKGRFTISRDTAKNTVYLQMNSLKPEDTAVYYCNALHTYTYRYDYYYWGQGTQVTVSS”, for which the “polyreactivity (PSR sort gate)” value is given as “high polyreactivity”.
For the sequence “QVQLVESAGRLVQAGGSLRLSCAASGFTFRKNAMGWYRQAPGKERELVAAITFSGGSTYYADSVKGRFTISRDNAKNTVYLQMNSLKPEDTAVYFCGTRYYYHYPRKHIYNYWGQGTQVTVSS”, the “polyreactivity (PSR sort gate)” value is given as “high polyreactivity”.
Take “QVQLVESAGRLVQAGGSLRLSCSASGSIFDWYAMGWYRQEPGKERELVAAISWSGGSTYYADSVKGRFTISRDNAKNTVYLQMNSLKPEDSAVYYCYAVFLYFNDDKFDNWGQGTQVTVSS”: the “polyreactivity (PSR sort gate)” value is listed as “low polyreactivity”.
In the case of “QVQLVESAGVLVQAGGRLRLICAACGSIFDYYSLGWYRQAPGKEREMVDTISGGGGTTYYADSVKGRFTISRDNAKNSVYVHMNSLKPEDTAVYYCAADSLGYKYWGQGTQVTVSS”, the “polyreactivity (PSR sort gate)” value is given as “low polyreactivity”.
As for “QVQLVESAVGLVQAGGSLRLSCAASGGIIAYNAMGWYRQAPGKERELVAAISSSGGRTYYADSVKGRFTISRDNAKNTVYLQMNSLKPEDTAVYYCAADITFRYYYWGQGTQVTVSS”, the entry is “high polyreactivity”.
As for “QVQLVESCGCLVQAGGSLRLSCAAYGITFGRNTMVWDRQAPGKERELVAAIDSGGNTYAVSVKGRFTISRDNAKNTVYLQMISLKPEDTAVYYCAVDGGEFSSYGYWGQGTQVTVSS”, the entry is “low polyreactivity”.
As for “QVQLVESCGGIVQAGVSLRLSCAASGSIFGIYAMGWYRQAPGKERELVAAIDSSGTSTYYADSVKGRFTISRDNEKNTVYLQMNSLKPEDTAVNSSAAYHRISKNNYWGQGTEVTVSS”, the entry is “low polyreactivity”; as for “QVQLVESCGGLDQAGGSLRLSCAASGSMFGYAMGWYRQAPGKERELVASTTYADSVKGRFTISRDNAKNTVYLQMNSLKPEDTAVYDCAADDWYTVEMEYWGQGTLVTVSS”, “low polyreactivity”.
In the case of “QVQLVESCGGLVHAGCSLRLSCAASGSTFTFYAMGWYRQAPGKERVLVATISWSTGTTYYADSVKGRFTISRDSAKNTVYLEMNSMKPEDTAVYYCADAWSYRFDYWGQGTQVTVSS”, the “polyreactivity (PSR sort gate)” value is on record as “low polyreactivity”.
For the sequence “QVQLVESCGGLVHAGGSLRLSCAASGRSFYRYAMGWYRKAPGKERELVAAISSGGSTYYADSVKGRFTISRDNANNTDYLQMNSLKPEDTAVYYCNADYGRRIHMDYWGQGTQVTVSS”, the “polyreactivity (PSR sort gate)” value is given as “low polyreactivity”.
As for “QVQLVESCGGLVQAGASLRLSCAASGSTFKYYTMGWYIQSPGKERELVAAISFSGARTYYADSVKGRFTISRDNAKNNVYLQMNSLKPEDTAVYYCAKRATWYTVPREGYWGQGTLVTVSS”, the entry is “high polyreactivity”; as for “QVQLVESCGGLVQAGGSLRLICAASGRTFRSYTMGWYRQAPGKERELVAAISYNCGSTYYADSVKGRFTISRDNAKNTVYLQMNSLKPEDTPVYYCAVYTIYGFYYWGQGTQVSVSS”, “high polyreactivity”; as for “QVQLVESCGGLVQAGGSLRLICDDSGNTFNRYAMGWYRQAPGKERELVADITSGGRTYYAYSVKGRFTISRDNAKNTVYLQMNSVKPVDTAVYYCAGEWWDLGNFYWSYRYDYWGQCTQVTVSS”, “high polyreactivity”.
As for “QVQLVESCGGLVQAGGSLRLRCAASRSIFDSYAMGWYRQAPGKERELVASISYRGGSTYYADSVKGRFTISRDIAKNTVYLQMNSLKPEDTAVYYCAATPGYHYRSWRYYYWGQGNQVTVSS”, the entry is “high polyreactivity”.
As for “QVQLVESCGGLVQAGGSLRLSCAASGFTFYYYVMGWYRQAPGQERELVAAISRSGGNTYYADSVKGRFTISRDNAKNTVYLQMNRLKPEDTAVYYCNAVQYYPVYYWGQGTQVTVSS”, the “polyreactivity (PSR sort gate)” value was “high polyreactivity”.
The result for “QVQLVESCGGLVQAGGSLRLSCAASGITFGSYAMGWYRQAPGKERELVAAITTGTSTNYADSVKGRFTISRDNAKNTVYLQMNSLKPEDTAVYYCNAEKYNFIYAYEYWGQGTQVTVSS” reads “low polyreactivity”.
The result for “QVQLVESCGGLVQAGGSLRLSCAASGLIIRWYAMGWYRQAPGKERELVAAITRAGSTYYADSVKWRFTISRDNAKNTVYLQMNSLNPEDTAVYYCAADTNWSPGYIMYYRSDYWGQGTQVTVSS” reads “low polyreactivity”; that for “QVQLVESCGGLVQAGGSLRLSCAASGLTLGDNAMGLYRQAPGKERELVAAITSGSSTDYADSVKGRFTISRDNAKNTVYLQMNSLKPEDTAVYYCAKRIYRYQYRPENYWGQGTQVTVSS”, “low polyreactivity”.
